# Results: paper PMC4944999 (PLoS ONE, 2016)
# Target: PeB^GF-Lys, double substituted variant ([change], [change]) of PeB-Lys (mouse)
# Assay: SPR
substance,measurement,value
"hemagglutinin (HA) of influenza A/California/7/2009 H1N1, in the split vaccine Pandemrix (natural protein)",fold amount of hemagglutinin bound compared to PeB,20 fold
